Earlier results on two substances are cited in article PMC3669279.

Series [1] concerns the target protective antigen (PA) (Bacillus anthracis) (UniProt P13423).
For series [2] the target is unchanged. The source holds these as a separate data set.

Like-named read-outs stand apart in the source and are kept apart here.

Broadly, the Kd is the equilibrium constant for the complex coming apart. Consider edema factor (EF) (from UniProt P40136), for which the equilibrium dissociation constant (Kd) in series [1] is 1 nM.

In the case of “lethal factor (LF) (from UniProt P15917)”, the dissociation constant Kd in series [2] was 1 nM.
